What was measured:
[1] = tested on: PKCα; test: Immunofluorescence for PKCα in HCEC monolayers; assay type: cell-based, human; details: CAP37 500 ng/ml; 15 minutes
Experimental: HCEC monolayers were grown to confluency and were scratched with a 10 μl pipette tip or left unscratched, and then the monolayers were treated for 15 minutes with (A-B) buffer, (C-D) PMA (1 μM), (E-F) 250 ng/ml CAP37, and (G-J) 500 ng/ml CAP37. Cells were stained for PKCδ (250 ng/ml; (A-H)), and PKCα (1 μg/ml; (I-J)) and detected using immunofluorescence (4 μg/ml, ALEXA FLUOR® 488 dye (Life Technologies Corp., Grand Island, N.Y.)). […] Scratched monolayers that were treated for 18 hours with CAP37 (250 ng/ml; (L)) or left untreated (K) were stained for PKCδ. […] Scale bars, 20 μm.
Immunofluorescence: HCECs and primary HCECs were cultured on Lab-Tek® II glass chamber slides (Nunc, Rochester, N.Y.) and starved overnight in basal media. For wounding studies, monolayers were scratched with a 10 μl pipette tip or left unscratched and treated with 1 μM phorbol 12-myristate 13-acetate (PMA, Sigma-Aldrich), rCAP37 (25-500 ng/ml), or basal KSFM (Gibco) for 15 minutes. After treatment, the cells were fixed in 4% (v/v) formaldehyde solution (Thermo, Rockford, Ill.) in PBS (Gibco) for 20 minutes at room temperature followed by permeabilization in 0.5% TRITON™-X 100 (Mallinckrodt, St. Louis, Mo.) in PBS for 10 minutes. Remaining formaldehyde was quenched with 0.05 M ammonium chloride (NH4Cl, Sigma-Aldrich, St. Louis, Mo.) in PBS for 10 minutes. […]

[2] = tested on: PKCδ; test: PKCδ siRNA knockdown and CAP37-induced corneal wound healing in vivo; parameters: species or system mouse; details: CAP37 250 ng/ml
Experimental: (A) siRNA directed against PKCδ or scrambled siRNA was injected into the mouse conjunctiva. The mouse corneal epithelium was removed with the AlgerBrush II. Corneal abrasions were treated at 0 and 16 hours with rCAP37 (250 ng/ml), or were left untreated (saline vehicle control). Wound healing was monitored at 0, 16, and 24 hours using fluorescein staining. Data are represented as the percentage of wound closure and are expressed as mean±SEM. The data are representative of at least 9 mice per group. *P<0.05 by unpaired t-test as compared to vehicle (normal saline) treated controls. The efficiency of the PKCδ knockdown in each cornea was confirmed by Western blot analysis 24 hours post-injection and determined in comparison to the scrambled siRNA-injected corneas. Data are representative of 22 experimental samples and are expressed as mean±SEM (***P<0.0005 by unpaired t-test). […]
siRNA transfection and gene silencing: Stealth RNAi™ (10 μM, Ambion®, Grand Island, N.Y.) directed against PKCδ or Stealth RNAi™ siRNA Negative Control Hi GC (10 μM, Ambion®) was delivered into the mouse conjunctiva through a 5 μl subconjunctival injection using a 33-gauge needle (Hamilton®, Reno, Nev.). […] Wound closure was quantitated at 16 and 24 hours as described. […]
Protein (20 μg) from each sample of corneal homogenate was analyzed by electrophoresis on a 10% SDS-PAGE gel. […]

B1: CAP37: cationic antimicrobial protein of Mr 37 kDa; recombinant CAP37 produced in human embryonic kidney (HEK) 293 cells (protein)
chain: IVGGRKARPRQFPFLASIQNQGRHFCGGALIHARFVMTAASCFQSQNPGVSTVVLGAYDLRRRERQSRQTFSISSMSENGYDPQQNLNDLMLLQLDREANLTSSVTILPLPLQNATVEAGTRCQVAGWGSQRSGGRLSRFPRFVNVTVTPEDQCRPNNVCTGVLTRRGGICNGDGGTPLVCEGLAHGVASFSLGPCGRGPDFFTRVALFRDWIDGVLNNPGP
PKCα staining, in words [1]: no increase in PKCα staining
wound healing in response to CAP37, in words ([2]; corneas transfected with PKCδ siRNA, 16 or 24 hours): no significant increase in wound healing
wound closure after CAP37, in words ([2]; corneas transfected with scrambled siRNA, 24 hours): expected increase in wound closure

Source: patent US11884710B2, “Peptide compounds and methods of use in wound healing” (priority 2013, dated 2024)
